Test results from US20260167699A1 (Chugai, published 2026).

T1: FcγRIIa(R) extracellular domain, His-tagged (human, UniProt P12318 34-217)
T1 construct: extracellular domain; also called 2aR
T1 sequence: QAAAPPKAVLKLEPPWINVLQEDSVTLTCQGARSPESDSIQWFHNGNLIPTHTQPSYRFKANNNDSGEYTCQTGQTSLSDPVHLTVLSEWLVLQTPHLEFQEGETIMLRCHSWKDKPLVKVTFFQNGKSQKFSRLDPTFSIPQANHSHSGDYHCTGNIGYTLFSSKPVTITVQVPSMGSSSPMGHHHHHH

T2: FcγRIIa(H) extracellular domain, His-tagged (human, UniProt P12318 34-217)
T2 construct: extracellular domain; also called 2aH
T2 sequence: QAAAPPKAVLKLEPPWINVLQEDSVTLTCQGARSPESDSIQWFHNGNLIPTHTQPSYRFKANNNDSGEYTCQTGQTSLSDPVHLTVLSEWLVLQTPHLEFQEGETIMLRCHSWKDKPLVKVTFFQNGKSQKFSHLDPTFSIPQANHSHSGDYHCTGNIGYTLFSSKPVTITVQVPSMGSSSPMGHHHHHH

T3: FcγRIIb extracellular domain, His-tagged (human, UniProt P31994 43-217)
T3 construct: extracellular domain; also called 2b
T3 sequence: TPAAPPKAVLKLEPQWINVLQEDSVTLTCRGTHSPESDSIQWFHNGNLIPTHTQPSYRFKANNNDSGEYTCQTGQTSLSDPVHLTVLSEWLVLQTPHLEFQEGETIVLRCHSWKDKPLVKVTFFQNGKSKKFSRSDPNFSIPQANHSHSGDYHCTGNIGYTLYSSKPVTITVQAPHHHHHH


How the values were obtained:
Experiment in all cases: SPR, vs GpH7-A5/GpH7-B3/GpL16-k0 =100
[1] = target: T4, FcγRIa extracellular domain, His-tagged (human, UniProt P12314 16-292)
T4 construct: extracellular domain; also called 1a
T4 sequence (P12314 other isoform, or with tags, fused parts or gaps): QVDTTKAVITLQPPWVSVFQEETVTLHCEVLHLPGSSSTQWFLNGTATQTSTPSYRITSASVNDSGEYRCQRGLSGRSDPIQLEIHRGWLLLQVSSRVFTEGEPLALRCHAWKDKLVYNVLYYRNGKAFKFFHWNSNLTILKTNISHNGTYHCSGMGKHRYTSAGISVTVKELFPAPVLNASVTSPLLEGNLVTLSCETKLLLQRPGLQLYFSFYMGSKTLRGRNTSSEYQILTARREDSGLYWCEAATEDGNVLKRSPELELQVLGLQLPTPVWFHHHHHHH

[2] = target: T1, FcγRIIa(R) extracellular domain, …
[3] = target: T2, FcγRIIa(H) extracellular domain, …
[4] = target: T3, FcγRIIb extracellular domain, His-tagged
[5] = target: T5, FcγRIIIa extracellular domain, His-tagged (human, UniProt P08637 17-208)
T5 construct: extracellular domain; also called 3a
T5 sequence (P08637 other isoform, or with tags, fused parts or gaps): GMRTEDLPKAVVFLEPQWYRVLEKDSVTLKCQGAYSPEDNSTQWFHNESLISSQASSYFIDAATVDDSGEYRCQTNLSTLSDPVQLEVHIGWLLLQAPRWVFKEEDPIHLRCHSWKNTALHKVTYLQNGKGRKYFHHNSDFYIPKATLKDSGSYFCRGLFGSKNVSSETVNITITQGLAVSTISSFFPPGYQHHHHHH

Binder | He/Con 1a [1] | He/Con 2aR [2] | He/Con 2aH [3] | He/Con 2b [4] | He/Con 3a [5]
GpH7-A5/GpH7-B3 variant L234_16H/GpL16-k0 (antibody, human IgG1, kappa) heavy 1: not shown heavy 2: not shown light: DIVMTQSPLSLPVTPGEPASISCQASESLVHSNRNTYLHWYLQKPGQSPQLLIYKVSNRFSGVPDRFSGSGSGTDFTLKISRVEAEDVGVYYCSQNTHVPPTFGQGTKVEIERTVAAPSVFIFPPSDEQLKSGTASVVCLLNNFYPREAKVQWKVDNALQSGNSQESVTEQDSKDSTYSLSSTLTLSKADYEKHKVYACEVTHQGLSSPVTKSFNRGEC | 97 % of control | 83.5 % of control | 97.1 % of control | 67.8 % of control | 76.8 % of control
GpH7-A5/GpH7-B3 variant L235_05P/GpL16-k0 (antibody, human IgG1, kappa) heavy 1: not shown heavy 2: not shown light: DIVMTQSPLSLPVTPGEPASISCQASESLVHSNRNTYLHWYLQKPGQSPQLLIYKVSNRFSGVPDRFSGSGSGTDFTLKISRVEAEDVGVYYCSQNTHVPPTFGQGTKVEIERTVAAPSVFIFPPSDEQLKSGTASVVCLLNNFYPREAKVQWKVDNALQSGNSQESVTEQDSKDSTYSLSSTLTLSKADYEKHKVYACEVTHQGLSSPVTKSFNRGEC | 97.8 % of control | 74.6 % of control | 64.2 % of control | 62.4 % of control | 68.6 % of control
GpH7-A5/GpH7-B3 variant L235_13S/GpL16-k0 (antibody, human IgG1, kappa) heavy 1: not shown heavy 2: not shown light: DIVMTQSPLSLPVTPGEPASISCQASESLVHSNRNTYLHWYLQKPGQSPQLLIYKVSNRFSGVPDRFSGSGSGTDFTLKISRVEAEDVGVYYCSQNTHVPPTFGQGTKVEIERTVAAPSVFIFPPSDEQLKSGTASVVCLLNNFYPREAKVQWKVDNALQSGNSQESVTEQDSKDSTYSLSSTLTLSKADYEKHKVYACEVTHQGLSSPVTKSFNRGEC | 93.5 % of control | 75.9 % of control | 73.5 % of control | 55 % of control | 67.2 % of control
GpH7-A5/GpH7-B3 variant L235_03V/GpL16-k0 (antibody, human IgG1, kappa) heavy 1: not shown heavy 2: not shown light: DIVMTQSPLSLPVTPGEPASISCQASESLVHSNRNTYLHWYLQKPGQSPQLLIYKVSNRFSGVPDRFSGSGSGTDFTLKISRVEAEDVGVYYCSQNTHVPPTFGQGTKVEIERTVAAPSVFIFPPSDEQLKSGTASVVCLLNNFYPREAKVQWKVDNALQSGNSQESVTEQDSKDSTYSLSSTLTLSKADYEKHKVYACEVTHQGLSSPVTKSFNRGEC | 97.8 % of control | 83.4 % of control | 94.9 % of control | 75.8 % of control | 94.6 % of control
GpH7-A5/GpH7-B3 variant L235_14T/GpL16-k0 (antibody, human IgG1, kappa) heavy 1: not shown heavy 2: not shown light: DIVMTQSPLSLPVTPGEPASISCQASESLVHSNRNTYLHWYLQKPGQSPQLLIYKVSNRFSGVPDRFSGSGSGTDFTLKISRVEAEDVGVYYCSQNTHVPPTFGQGTKVEIERTVAAPSVFIFPPSDEQLKSGTASVVCLLNNFYPREAKVQWKVDNALQSGNSQESVTEQDSKDSTYSLSSTLTLSKADYEKHKVYACEVTHQGLSSPVTKSFNRGEC | 91.6 % of control | 70.6 % of control | 79.5 % of control | 53.4 % of control | 73.2 % of control
GpH7-A5/GpH7-B3 variant L235_10E/GpL16-k0 (antibody, human IgG1, kappa) heavy 1: not shown heavy 2: not shown light: DIVMTQSPLSLPVTPGEPASISCQASESLVHSNRNTYLHWYLQKPGQSPQLLIYKVSNRFSGVPDRFSGSGSGTDFTLKISRVEAEDVGVYYCSQNTHVPPTFGQGTKVEIERTVAAPSVFIFPPSDEQLKSGTASVVCLLNNFYPREAKVQWKVDNALQSGNSQESVTEQDSKDSTYSLSSTLTLSKADYEKHKVYACEVTHQGLSSPVTKSFNRGEC | 96.9 % of control | 98.7 % of control | 80 % of control | 90.8 % of control | 85.6 % of control
GpH7-A5/GpH7-B3 variant L234_20W/GpL16-k0 (antibody, human IgG1, kappa) heavy 1: not shown heavy 2: not shown light: DIVMTQSPLSLPVTPGEPASISCQASESLVHSNRNTYLHWYLQKPGQSPQLLIYKVSNRFSGVPDRFSGSGSGTDFTLKISRVEAEDVGVYYCSQNTHVPPTFGQGTKVEIERTVAAPSVFIFPPSDEQLKSGTASVVCLLNNFYPREAKVQWKVDNALQSGNSQESVTEQDSKDSTYSLSSTLTLSKADYEKHKVYACEVTHQGLSSPVTKSFNRGEC | 102 % of control | 125 % of control | 126 % of control | 131 % of control | 103 % of control
GpH7-A5/GpH7-B3 variant L234_19Q/GpL16-k0 (antibody, human IgG1, kappa) heavy 1: not shown heavy 2: not shown light: DIVMTQSPLSLPVTPGEPASISCQASESLVHSNRNTYLHWYLQKPGQSPQLLIYKVSNRFSGVPDRFSGSGSGTDFTLKISRVEAEDVGVYYCSQNTHVPPTFGQGTKVEIERTVAAPSVFIFPPSDEQLKSGTASVVCLLNNFYPREAKVQWKVDNALQSGNSQESVTEQDSKDSTYSLSSTLTLSKADYEKHKVYACEVTHQGLSSPVTKSFNRGEC | 98.8 % of control | 87.2 % of control | 88.1 % of control | 68.9 % of control | 77.1 % of control
GpH7-A5/GpH7-B3 variant L235_07I/GpL16-k0 (antibody, human IgG1, kappa) heavy 1: not shown heavy 2: not shown light: DIVMTQSPLSLPVTPGEPASISCQASESLVHSNRNTYLHWYLQKPGQSPQLLIYKVSNRFSGVPDRFSGSGSGTDFTLKISRVEAEDVGVYYCSQNTHVPPTFGQGTKVEIERTVAAPSVFIFPPSDEQLKSGTASVVCLLNNFYPREAKVQWKVDNALQSGNSQESVTEQDSKDSTYSLSSTLTLSKADYEKHKVYACEVTHQGLSSPVTKSFNRGEC | 103 % of control | 102 % of control | 99.5 % of control | 100 % of control | 92.8 % of control
GpH7-A5/GpH7-B3 variant L234_18N/GpL16-k0 (antibody, human IgG1, kappa) heavy 1: not shown heavy 2: not shown light: DIVMTQSPLSLPVTPGEPASISCQASESLVHSNRNTYLHWYLQKPGQSPQLLIYKVSNRFSGVPDRFSGSGSGTDFTLKISRVEAEDVGVYYCSQNTHVPPTFGQGTKVEIERTVAAPSVFIFPPSDEQLKSGTASVVCLLNNFYPREAKVQWKVDNALQSGNSQESVTEQDSKDSTYSLSSTLTLSKADYEKHKVYACEVTHQGLSSPVTKSFNRGEC | 97.3 % of control | 98 % of control | 100 % of control | 92 % of control | 88.2 % of control
GpH7-A5/GpH7-B3 variant L235_06M/GpL16-k0 (antibody, human IgG1, kappa) heavy 1: not shown heavy 2: not shown light: DIVMTQSPLSLPVTPGEPASISCQASESLVHSNRNTYLHWYLQKPGQSPQLLIYKVSNRFSGVPDRFSGSGSGTDFTLKISRVEAEDVGVYYCSQNTHVPPTFGQGTKVEIERTVAAPSVFIFPPSDEQLKSGTASVVCLLNNFYPREAKVQWKVDNALQSGNSQESVTEQDSKDSTYSLSSTLTLSKADYEKHKVYACEVTHQGLSSPVTKSFNRGEC | 101 % of control | 106 % of control | 96.3 % of control | 92.4 % of control | 75.6 % of control
GpH7-A5/GpH7-B3 variant L235_04F/GpL16-k0 (antibody, human IgG1, kappa) heavy 1: not shown heavy 2: not shown light: DIVMTQSPLSLPVTPGEPASISCQASESLVHSNRNTYLHWYLQKPGQSPQLLIYKVSNRFSGVPDRFSGSGSGTDFTLKISRVEAEDVGVYYCSQNTHVPPTFGQGTKVEIERTVAAPSVFIFPPSDEQLKSGTASVVCLLNNFYPREAKVQWKVDNALQSGNSQESVTEQDSKDSTYSLSSTLTLSKADYEKHKVYACEVTHQGLSSPVTKSFNRGEC | 100 % of control | 132 % of control | 123 % of control | 135 % of control | 76.4 % of control
GpH7-A5/GpH7-B3 variant L235_02A/GpL16-k0 (antibody, human IgG1, kappa) heavy 1: not shown heavy 2: not shown light: DIVMTQSPLSLPVTPGEPASISCQASESLVHSNRNTYLHWYLQKPGQSPQLLIYKVSNRFSGVPDRFSGSGSGTDFTLKISRVEAEDVGVYYCSQNTHVPPTFGQGTKVEIERTVAAPSVFIFPPSDEQLKSGTASVVCLLNNFYPREAKVQWKVDNALQSGNSQESVTEQDSKDSTYSLSSTLTLSKADYEKHKVYACEVTHQGLSSPVTKSFNRGEC | 95.2 % of control | 86.6 % of control | 77.6 % of control | 72 % of control | 72 % of control
GpH7-A5/GpH7-B3 variant L235_09D/GpL16-k0 (antibody, human IgG1, kappa) heavy 1: not shown heavy 2: not shown light: DIVMTQSPLSLPVTPGEPASISCQASESLVHSNRNTYLHWYLQKPGQSPQLLIYKVSNRFSGVPDRFSGSGSGTDFTLKISRVEAEDVGVYYCSQNTHVPPTFGQGTKVEIERTVAAPSVFIFPPSDEQLKSGTASVVCLLNNFYPREAKVQWKVDNALQSGNSQESVTEQDSKDSTYSLSSTLTLSKADYEKHKVYACEVTHQGLSSPVTKSFNRGEC | 87.6 % of control | 117 % of control | 84.3 % of control | 121 % of control | 88.5 % of control
